Assay results: the supplement of paper PMC9112550, “Optimization of the antimicrobial peptide Bac7 by deep mutational scanning” (BMC Biology, 2022)

Tested on: Escherichia coli TOP10
Assay: shrunken log2 fold change of peptide-encoding DNA abundance (4.5 h post-induction vs induction); higher = less antimicrobial activity (less host growth inhibition)
Details: time post-induction: 4.5 h; library: site-saturation at positions 5, 18, 19, 20
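Note: peptides expressed intracellularly from a pBAD plasmid library in pooled LB shake-flask culture, induced with 0.3% L-arabinose, DNA abundance read by NGS, three biological replicates, DESeq2 with apeglm shrinkage.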

| Sequence | shrunken log2 fold change |
| --- | --- |
| RRIRHRPPRLPRPRPRPFARPRP | -0.107 |
| RRIRWRPPRLPRPRPRPYRTPRP | 0.00941 |
| RRIRARPPRLPRPRPRPHGDPRP | 0.362 |
| RRIRYRPPRLPRPRPRPFPDPRP | -0.164 |
| RRIRPRPPRLPRPRPRPFLYPRP | -0.138 |
| RRIRTRPPRLPRPRPRPHIDPRP | -0.0151 |
| RRIRNRPPRLPRPRPRPWWWPRP | 0.373 |
| RRIRNRPPRLPRPRPRPDICPRP | 0.0866 |
| RRIRPRPPRLPRPRPRPQFGPRP | -0.0476 |
| RRIRVRPPRLPRPRPRPKDHPRP | -0.308 |
| RRIRERPPRLPRPRPRPHNYPRP | -0.612 |
| RRIRYRPPRLPRPRPRPSKQPRP | -0.137 |
| RRIRDRPPRLPRPRPRPVYCPRP | -0.115 |
| RRIRSRPPRLPRPRPRPMGQPRP | 0.0126 |
| RRIRVRPPRLPRPRPRPKQKPRP | -0.0521 |
| RRIRPRPPRLPRPRPRPPTGPRP | 0.452 |
| RRIRRRPPRLPRPRPRPRCRPRP | 1.57 |
| RRIRERPPRLPRPRPRPHQGPRP | 0.0963 |
| RRIRYRPPRLPRPRPRPVDTPRP | -0.204 |
| RRIRWRPPRLPRPRPRPGCYPRP | -0.0343 |
| RRIRCRPPRLPRPRPRPSWEPRP | -0.0769 |
| RRIRTRPPRLPRPRPRPGQLPRP | 0.226 |
| RRIRIRPPRLPRPRPRPSNNPRP | -0.656 |
| RRIRQRPPRLPRPRPRPTLRPRP | -0.0246 |
| RRIRWRPPRLPRPRPRPCHIPRP | -0.414 |

| Sequence | shrunken log2 fold change |
| --- | --- |
| RRIRQRPPRLPRPRPRPRNIPRP | -0.0833 |
| RRIRCRPPRLPRPRPRPTFEPRP | -0.279 |
| RRIRNRPPRLPRPRPRPYRTPRP | -0.268 |
| RRIRHRPPRLPRPRPRPANIPRP | -0.291 |
| RRIRNRPPRLPRPRPRPNHSPRP | -0.525 |
| RRIRLRPPRLPRPRPRPKNCPRP | -0.5 |
| RRIRARPPRLPRPRPRPRCQPRP | 0.316 |
| RRIRDRPPRLPRPRPRPWAAPRP | 0.00948 |
| RRIRKRPPRLPRPRPRPHSCPRP | 0.0828 |
| RRIRQRPPRLPRPRPRPMGKPRP | -0.167 |
| RRIRWRPPRLPRPRPRPVFYPRP | -0.193 |
| RRIRHRPPRLPRPRPRPTTRPRP | 0.383 |
| RRIRVRPPRLPRPRPRPGPFPRP | -0.0278 |
| RRIRGRPPRLPRPRPRPEVVPRP | 0.918 |
| RRIRLRPPRLPRPRPRPTDVPRP | -0.524 |
| RRIRHRPPRLPRPRPRPLCLPRP | -0.368 |
| RRIRYRPPRLPRPRPRPKPLPRP | 0.276 |
| RRIRKRPPRLPRPRPRPMVFPRP | -0.0194 |
| RRIRDRPPRLPRPRPRPQTFPRP | 0.0361 |
| RRIRHRPPRLPRPRPRPGNRPRP | 0.013 |
| RRIRMRPPRLPRPRPRPATVPRP | 0.323 |
| RRIRMRPPRLPRPRPRPHMEPRP | -0.0461 |
| RRIRSRPPRLPRPRPRPRDDPRP | 0.0905 |
| RRIRQRPPRLPRPRPRPWKVPRP | -0.00992 |
| RRIRIRPPRLPRPRPRPRLAPRP | 0.237 |

| Sequence | shrunken log2 fold change |
| --- | --- |
| RRIRWRPPRLPRPRPRPDDDPRP | 3.98 |
| RRIRNRPPRLPRPRPRPVPPPRP | 0.234 |
| RRIRDRPPRLPRPRPRPWNKPRP | -0.117 |
| RRIRPRPPRLPRPRPRPLRIPRP | 0.0628 |
| RRIRWRPPRLPRPRPRPMILPRP | -0.14 |
| RRIRDRPPRLPRPRPRPNFKPRP | -0.0287 |
| RRIRQRPPRLPRPRPRPCHYPRP | -0.000921 |
| RRIRVRPPRLPRPRPRPDVQPRP | -0.0199 |
| RRIRIRPPRLPRPRPRPRPPPRP | 0.635 |
| RRIRSRPPRLPRPRPRPIQVPRP | 0.0973 |
| RRIRHRPPRLPRPRPRPSWHPRP | -0.759 |
| RRIRARPPRLPRPRPRPVCEPRP | 0.836 |
| RRIRWRPPRLPRPRPRPRSHPRP | 0.273 |
| RRIRKRPPRLPRPRPRPYSAPRP | -0.134 |
| RRIRHRPPRLPRPRPRPGDGPRP | 0.209 |
| RRIRNRPPRLPRPRPRPADSPRP | -0.0169 |
| RRIRHRPPRLPRPRPRPCCFPRP | -0.245 |
| RRIRPRPPRLPRPRPRPVINPRP | -0.626 |
| RRIRIRPPRLPRPRPRPDVVPRP | -0.0365 |
| RRIRERPPRLPRPRPRPCNNPRP | -0.768 |
| RRIRMRPPRLPRPRPRPAFTPRP | 0.251 |
| RRIRIRPPRLPRPRPRPYSCPRP | -0.0992 |
| RRIRSRPPRLPRPRPRPTHCPRP | 0.36 |
| RRIRARPPRLPRPRPRPTKMPRP | 0.319 |
| RRIRWRPPRLPRPRPRPNRDPRP | -0.00925 |

| Sequence | shrunken log2 fold change |
| --- | --- |
| RRIRNRPPRLPRPRPRPHRNPRP | -0.176 |
| RRIRARPPRLPRPRPRPRCMPRP | 1.62 |
| RRIRDRPPRLPRPRPRPIKRPRP | 0.000716 |
| RRIRVRPPRLPRPRPRPKTYPRP | 0.325 |
| RRIRLRPPRLPRPRPRPNHGPRP | -0.17 |
| RRIRGRPPRLPRPRPRPGPQPRP | 0.719 |
| RRIRDRPPRLPRPRPRPVNWPRP | 0.188 |
| RRIRMRPPRLPRPRPRPSGIPRP | 0.0258 |
| RRIRSRPPRLPRPRPRPQMTPRP | -0.0755 |
| RRIRERPPRLPRPRPRPSDTPRP | -0.287 |
| RRIRWRPPRLPRPRPRPGDGPRP | 0.881 |
| RRIRCRPPRLPRPRPRPTNHPRP | -0.573 |
| RRIRYRPPRLPRPRPRPTYDPRP | -0.73 |
| RRIRARPPRLPRPRPRPTWKPRP | -0.0384 |
| RRIRPRPPRLPRPRPRPGPLPRP | 0.193 |
| RRIRRRPPRLPRPRPRPCFFPRP | 0.0648 |
| RRIRGRPPRLPRPRPRPLVGPRP | 0.439 |
| RRIRRRPPRLPRPRPRPVAIPRP | 0.687 |
| RRIRPRPPRLPRPRPRPKPIPRP | 0.035 |
| RRIRGRPPRLPRPRPRPCRPPRP | -0.04 |
| RRIRQRPPRLPRPRPRPGTHPRP | -0.00939 |
| RRIRCRPPRLPRPRPRPMHNPRP | -0.293 |
| RRIRKRPPRLPRPRPRPRSRPRP | 0.418 |
| RRIRFRPPRLPRPRPRPAKYPRP | -0.381 |
| RRIRHRPPRLPRPRPRPPCLPRP | -0.0439 |

| Sequence | shrunken log2 fold change |
| --- | --- |
| RRIRARPPRLPRPRPRPHVCPRP | -0.297 |
| RRIRVRPPRLPRPRPRPRGGPRP | 0.609 |
| RRIRHRPPRLPRPRPRPLAHPRP | 0.0514 |
| RRIRFRPPRLPRPRPRPSQSPRP | -0.0504 |
| RRIRSRPPRLPRPRPRPCHFPRP | -0.186 |
| RRIRQRPPRLPRPRPRPYIQPRP | -0.32 |
| RRIRPRPPRLPRPRPRPLSGPRP | 0.0234 |
| RRIRIRPPRLPRPRPRPCWKPRP | 0.00408 |
| RRIRMRPPRLPRPRPRPSDWPRP | 0.998 |
| RRIRKRPPRLPRPRPRPGNSPRP | -0.0266 |
| RRIRGRPPRLPRPRPRPVPYPRP | 0.11 |
| RRIRNRPPRLPRPRPRPRYLPRP | -0.547 |
| RRIRLRPPRLPRPRPRPLCSPRP | -0.223 |
| RRIRKRPPRLPRPRPRPWNRPRP | -0.078 |
| RRIRDRPPRLPRPRPRPCVMPRP | 0.543 |
| RRIRIRPPRLPRPRPRPAVDPRP | -0.0902 |
| RRIRIRPPRLPRPRPRPINYPRP | -0.379 |
| RRIRCRPPRLPRPRPRPMNRPRP | -0.35 |
| RRIRKRPPRLPRPRPRPGHSPRP | -0.0124 |
| RRIRCRPPRLPRPRPRPPSNPRP | -0.416 |
| RRIRQRPPRLPRPRPRPSLYPRP | -0.233 |
| RRIRHRPPRLPRPRPRPNWLPRP | -0.165 |
| RRIRQRPPRLPRPRPRPGLAPRP | 0.197 |
| RRIRARPPRLPRPRPRPWKWPRP | -0.163 |
| RRIRMRPPRLPRPRPRPRGKPRP | 0.97 |
